Data taken from patent US20220298218A1 (ANTAG THERAPEUTICS, published 2022).
*1 amine or outer side, *2 acyl side, *3 side chain or, on linkers, in order; H or OH if unused. Where no end group is shown, it is not given here. Side-chain parts run from the residue outwards. The star is where a group is joined. C18 diacid = O=C(O)CCCCCCCCCCCCCCCCC(=O)*; C16 diacid = O=C(O)CCCCCCCCCCCCCCC(=O)*; γGlu = O=C(O)[C@H](CCC(=O)[*:2])N[*:1]; AEEA = NCCOCCOCC(=O)O

B1: AT456 (peptide)
peptide: TFISDYKIAMDKIHQQDFVNWLLAQKGK
HELM: PEPTIDE1{T.F.I.S.D.Y.K.I.A.M.D.K.I.H.Q.Q.D.F.V.N.W.L.L.A.Q.K.G.K}|PEPTIDE2{[O=C(O)CCCCCCCCCCCCCCC(=O)[*:2]].[gGlu]}$PEPTIDE1,PEPTIDE2,7:R3-2:R2$$$V2.0; N-terminus assumed
SMILES: CC[C@H](C)[C@H](NC(=O)[C@H](CCCCNC(=O)CC[C@H](NC(=O)CCCCCCCCCCCCCCC(=O)O)C(=O)O)NC(=O)[C@H](Cc1ccc(O)cc1)NC(=O)[C@H](CC(=O)O)NC(=O)[C@H](CO)NC(=O)[C@@H](NC(=O)[C@H](Cc1ccccc1)NC(=O)[C@@H](N)[C@@H](C)O)[C@@H](C)CC)C(=O)N[C@@H](C)C(=O)N[C@@H](CCSC)C(=O)N[C@@H](CC(=O)O)C(=O)N[C@@H](CCCCN)C(=O)N[C@H](C(=O)N[C@@H](Cc1c[nH]cn1)C(=O)N[C@@H](CCC(N)=O)C(=O)N[C@@H](CCC(N)=O)C(=O)N[C@@H](CC(=O)O)C(=O)N[C@@H](Cc1ccccc1)C(=O)N[C@H](C(=O)N[C@@H](CC(N)=O)C(=O)N[C@@H](Cc1c[nH]c2ccccc12)C(=O)N[C@@H](CC(C)C)C(=O)N[C@@H](CC(C)C)C(=O)N[C@@H](C)C(=O)N[C@@H](CCC(N)=O)C(=O)N[C@@H](CCCCN)C(=O)NCC(=O)N[C@@H](CCCCN)C(=O)O)C(C)C)[C@@H](C)CC
B2: AT445 (peptide)
peptide: TFISDYK([AEEA-AEEA-γGlu-C18 diacid])IAMDRIHQQDFVNWLLAQRGPSSGAPPPS-OH
modifications: N-terminus assumed
SMILES: CC[C@H](C)[C@H](NC(=O)[C@H](CCCCNC(=O)COCCOCCNC(=O)COCCOCCNC(=O)CC[C@H](NC(=O)CCCCCCCCCCCCCCCCC(=O)O)C(=O)O)NC(=O)[C@H](Cc1ccc(O)cc1)NC(=O)[C@H](CC(=O)O)NC(=O)[C@H](CO)NC(=O)[C@@H](NC(=O)[C@H](Cc1ccccc1)NC(=O)[C@@H](N)[C@@H](C)O)[C@@H](C)CC)C(=O)N[C@@H](C)C(=O)N[C@@H](CCSC)C(=O)N[C@@H](CC(=O)O)C(=O)N[C@@H](CCCNC(=N)N)C(=O)N[C@H](C(=O)N[C@@H](Cc1c[nH]cn1)C(=O)N[C@@H](CCC(N)=O)C(=O)N[C@@H](CCC(N)=O)C(=O)N[C@@H](CC(=O)O)C(=O)N[C@@H](Cc1ccccc1)C(=O)N[C@H](C(=O)N[C@@H](CC(N)=O)C(=O)N[C@@H](Cc1c[nH]c2ccccc12)C(=O)N[C@@H](CC(C)C)C(=O)N[C@@H](CC(C)C)C(=O)N[C@@H](C)C(=O)N[C@@H](CCC(N)=O)C(=O)N[C@@H](CCCNC(=N)N)C(=O)NCC(=O)N1CCC[C@H]1C(=O)N[C@@H](CO)C(=O)N[C@@H](CO)C(=O)NCC(=O)N[C@@H](C)C(=O)N1CCC[C@H]1C(=O)N1CCC[C@H]1C(=O)N1CCC[C@H]1C(=O)N[C@@H](CO)C(=O)O)C(C)C)[C@@H](C)CC
B3: AT455 (peptide)
peptide: TFISDYKIAMDKIHQQDFVNWLLAQKG
HELM: PEPTIDE1{T.F.I.S.D.Y.K.I.A.M.D.K.I.H.Q.Q.D.F.V.N.W.L.L.A.Q.K.G}|PEPTIDE2{[O=C(O)CCCCCCCCCCCCCCC(=O)[*:2]].[gGlu]}$PEPTIDE1,PEPTIDE2,7:R3-2:R2$$$V2.0; N-terminus assumed
SMILES: CC[C@H](C)[C@H](NC(=O)[C@H](CCCCNC(=O)CC[C@H](NC(=O)CCCCCCCCCCCCCCC(=O)O)C(=O)O)NC(=O)[C@H](Cc1ccc(O)cc1)NC(=O)[C@H](CC(=O)O)NC(=O)[C@H](CO)NC(=O)[C@@H](NC(=O)[C@H](Cc1ccccc1)NC(=O)[C@@H](N)[C@@H](C)O)[C@@H](C)CC)C(=O)N[C@@H](C)C(=O)N[C@@H](CCSC)C(=O)N[C@@H](CC(=O)O)C(=O)N[C@@H](CCCCN)C(=O)N[C@H](C(=O)N[C@@H](Cc1c[nH]cn1)C(=O)N[C@@H](CCC(N)=O)C(=O)N[C@@H](CCC(N)=O)C(=O)N[C@@H](CC(=O)O)C(=O)N[C@@H](Cc1ccccc1)C(=O)N[C@H](C(=O)N[C@@H](CC(N)=O)C(=O)N[C@@H](Cc1c[nH]c2ccccc12)C(=O)N[C@@H](CC(C)C)C(=O)N[C@@H](CC(C)C)C(=O)N[C@@H](C)C(=O)N[C@@H](CCC(N)=O)C(=O)N[C@@H](CCCCN)C(=O)NCC(=O)O)C(C)C)[C@@H](C)CC
B4: AT446 (peptide)
peptide: TFISDYK([AEEA-AEEA-AEEA-γGlu-C18 diacid])IAMDRIHQQDFVNWLLAQRGPSSGAPPPS-OH
modifications: N-terminus assumed
SMILES: CC[C@H](C)[C@H](NC(=O)[C@H](CCCCNC(=O)COCCOCCNC(=O)COCCOCCNC(=O)COCCOCCNC(=O)CC[C@H](NC(=O)CCCCCCCCCCCCCCCCC(=O)O)C(=O)O)NC(=O)[C@H](Cc1ccc(O)cc1)NC(=O)[C@H](CC(=O)O)NC(=O)[C@H](CO)NC(=O)[C@@H](NC(=O)[C@H](Cc1ccccc1)NC(=O)[C@@H](N)[C@@H](C)O)[C@@H](C)CC)C(=O)N[C@@H](C)C(=O)N[C@@H](CCSC)C(=O)N[C@@H](CC(=O)O)C(=O)N[C@@H](CCCNC(=N)N)C(=O)N[C@H](C(=O)N[C@@H](Cc1c[nH]cn1)C(=O)N[C@@H](CCC(N)=O)C(=O)N[C@@H](CCC(N)=O)C(=O)N[C@@H](CC(=O)O)C(=O)N[C@@H](Cc1ccccc1)C(=O)N[C@H](C(=O)N[C@@H](CC(N)=O)C(=O)N[C@@H](Cc1c[nH]c2ccccc12)C(=O)N[C@@H](CC(C)C)C(=O)N[C@@H](CC(C)C)C(=O)N[C@@H](C)C(=O)N[C@@H](CCC(N)=O)C(=O)N[C@@H](CCCNC(=N)N)C(=O)NCC(=O)N1CCC[C@H]1C(=O)N[C@@H](CO)C(=O)N[C@@H](CO)C(=O)NCC(=O)N[C@@H](C)C(=O)N1CCC[C@H]1C(=O)N1CCC[C@H]1C(=O)N1CCC[C@H]1C(=O)N[C@@H](CO)C(=O)O)C(C)C)[C@@H](C)CC
B5: AT444 (peptide)
peptide: TFISDYK([AEEA-AEEA-AEEA-γGlu-C16 diacid])IAMDRIHQQDFVNWLLAQRGPSSGAPPPS-OH
modifications: N-terminus assumed
SMILES: CC[C@H](C)[C@H](NC(=O)[C@H](CCCCNC(=O)COCCOCCNC(=O)COCCOCCNC(=O)COCCOCCNC(=O)CC[C@H](NC(=O)CCCCCCCCCCCCCCC(=O)O)C(=O)O)NC(=O)[C@H](Cc1ccc(O)cc1)NC(=O)[C@H](CC(=O)O)NC(=O)[C@H](CO)NC(=O)[C@@H](NC(=O)[C@H](Cc1ccccc1)NC(=O)[C@@H](N)[C@@H](C)O)[C@@H](C)CC)C(=O)N[C@@H](C)C(=O)N[C@@H](CCSC)C(=O)N[C@@H](CC(=O)O)C(=O)N[C@@H](CCCNC(=N)N)C(=O)N[C@H](C(=O)N[C@@H](Cc1c[nH]cn1)C(=O)N[C@@H](CCC(N)=O)C(=O)N[C@@H](CCC(N)=O)C(=O)N[C@@H](CC(=O)O)C(=O)N[C@@H](Cc1ccccc1)C(=O)N[C@H](C(=O)N[C@@H](CC(N)=O)C(=O)N[C@@H](Cc1c[nH]c2ccccc12)C(=O)N[C@@H](CC(C)C)C(=O)N[C@@H](CC(C)C)C(=O)N[C@@H](C)C(=O)N[C@@H](CCC(N)=O)C(=O)N[C@@H](CCCNC(=N)N)C(=O)NCC(=O)N1CCC[C@H]1C(=O)N[C@@H](CO)C(=O)N[C@@H](CO)C(=O)NCC(=O)N[C@@H](C)C(=O)N1CCC[C@H]1C(=O)N1CCC[C@H]1C(=O)N1CCC[C@H]1C(=O)N[C@@H](CO)C(=O)O)C(C)C)[C@@H](C)CC
B6: AT443 (peptide)
peptide: TFISDYK([AEEA-AEEA-γGlu-C16 diacid])IAMDRIHQQDFVNWLLAQRGPSSGAPPPS-OH
modifications: N-terminus assumed
SMILES: CC[C@H](C)[C@H](NC(=O)[C@H](CCCCNC(=O)COCCOCCNC(=O)COCCOCCNC(=O)CC[C@H](NC(=O)CCCCCCCCCCCCCCC(=O)O)C(=O)O)NC(=O)[C@H](Cc1ccc(O)cc1)NC(=O)[C@H](CC(=O)O)NC(=O)[C@H](CO)NC(=O)[C@@H](NC(=O)[C@H](Cc1ccccc1)NC(=O)[C@@H](N)[C@@H](C)O)[C@@H](C)CC)C(=O)N[C@@H](C)C(=O)N[C@@H](CCSC)C(=O)N[C@@H](CC(=O)O)C(=O)N[C@@H](CCCNC(=N)N)C(=O)N[C@H](C(=O)N[C@@H](Cc1c[nH]cn1)C(=O)N[C@@H](CCC(N)=O)C(=O)N[C@@H](CCC(N)=O)C(=O)N[C@@H](CC(=O)O)C(=O)N[C@@H](Cc1ccccc1)C(=O)N[C@H](C(=O)N[C@@H](CC(N)=O)C(=O)N[C@@H](Cc1c[nH]c2ccccc12)C(=O)N[C@@H](CC(C)C)C(=O)N[C@@H](CC(C)C)C(=O)N[C@@H](C)C(=O)N[C@@H](CCC(N)=O)C(=O)N[C@@H](CCCNC(=N)N)C(=O)NCC(=O)N1CCC[C@H]1C(=O)N[C@@H](CO)C(=O)N[C@@H](CO)C(=O)NCC(=O)N[C@@H](C)C(=O)N1CCC[C@H]1C(=O)N1CCC[C@H]1C(=O)N1CCC[C@H]1C(=O)N[C@@H](CO)C(=O)O)C(C)C)[C@@H](C)CC

Each binder was assayed against T1, human GIP receptor (human, UniProt P48546 22-466) (assay: cell-based or functional assay).
T1 sequence (looked up): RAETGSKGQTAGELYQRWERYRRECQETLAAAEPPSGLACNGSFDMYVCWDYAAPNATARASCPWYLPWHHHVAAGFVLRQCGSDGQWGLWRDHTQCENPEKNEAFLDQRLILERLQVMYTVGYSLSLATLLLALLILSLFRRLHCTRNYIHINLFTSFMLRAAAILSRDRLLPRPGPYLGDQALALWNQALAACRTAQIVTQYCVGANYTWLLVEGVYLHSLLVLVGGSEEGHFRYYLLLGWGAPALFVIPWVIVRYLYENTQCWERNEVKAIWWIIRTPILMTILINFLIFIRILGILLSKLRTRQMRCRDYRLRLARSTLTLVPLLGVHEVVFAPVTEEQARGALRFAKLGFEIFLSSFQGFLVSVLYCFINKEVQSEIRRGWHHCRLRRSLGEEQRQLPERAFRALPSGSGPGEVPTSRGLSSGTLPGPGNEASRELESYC

Binder | cAMP antagonism | cAMP antagonism % inhib | cAMP antagonism log
B1 | 60 nM | 85% | -7.2 log M
B2 | 47 nM | 85% | -7.3 log M
B3 | 31 nM | 95% | -7.5 log M
B4 | 152 nM | 100% | -6.8 log M
B5 | 153 nM | 100% | -6.8 log M
B6 | 171 nM | 100% | -6.8 log M
